Measured values as given in patent publication US20250059285A1 (ARGENX, published 2025).

Experiments:
human Gal10-His [1] = target: T1, human Gal10-His (human, UniProt Q05315 2-142, limits assumed); assay: SPR, summary table, human Gal10
T1 construct: also called hGal10-His; human Gal10-His tagged; not shown: His tag
T1 sequence: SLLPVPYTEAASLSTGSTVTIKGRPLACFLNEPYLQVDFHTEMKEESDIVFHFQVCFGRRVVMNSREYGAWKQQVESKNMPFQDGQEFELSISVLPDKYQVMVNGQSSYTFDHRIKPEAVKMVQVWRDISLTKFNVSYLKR

human Gal10-His [2] = target: T1, human Gal10-His; assay: SPR, overview table of lead Fab candidates
human Gal10-His [3] = target: T1, human Gal10-His; assay: SPR Biacore 3000, hFab on captured human Gal10-His
Text: For this purpose, two approaches were used. In the first, two concentrations of the selected clones were applied on cynomolgus (WGS isoform) Gal10-His capture on a CM5 chip coated with a monoclonal anti-His antibody. The second approach involved a serial dilution that was applied on human or cynomolgus (WGS isoform) Gal10-His in the same set-up.
Further characterization of the cynomolgus cross-reactivity of these clones highlighted g24F02_N53A and g23H09.

human Gal10-His [4] = target: T1, human Gal10-His; assay: SPR against T0 reference; sample 4 weeks at 37 C
Protocol: The functional active concentration of the candidates was then assessed by SPR on a Biacore 3000 instrument (FIG. 4). All samples were evaluated with methods meeting the standard qualification criteria. Aliquots were tested at predefined test concentrations against titration curves from reference samples (T0, −80° C. storage) and in the presence of quality control (QC) samples covering a range of 70-130% relative activity (% RA) towards the reference material.
comparison/reference ⁽¹⁾ samples correspond to aliquots kept at +37° C. for 4 weeks ⁽²⁾ samples correspond to aliquots kept at +5° C. for 4 weeks prior to nebulization. In brief, samples were nebulized with an Aerogen Solo active vibrating mesh nebulizer that converted a drug solution into an inhalable aerosol. Three different devices for each time-point were used per clone and results are reported by the device (nebulizer) serial number. In case of device fouling, indicated by longer nebulization times […]

human Gal10-His [5] = target: T1, human Gal10-His; assay: summary of periplasmic extract screening (BLI or SPR)
human Gal10-His [6] = target: T1, human Gal10-His; assay: SPR Biacore 3000, Fab periplasmic extract on Gal10-His-coated CM5
Protocol: The binding properties of the Fabs (periplasmic extract) to human Gal10-His were analyzed by SPR with a Biacore 3000 instrument. For this purpose, the diluted periplasmic extract was applied on a CM5 chip coated with human Gal10-His. As a positive control, a 20 nM injection of the purified g7B07 clone in the human Fab backbone was included at the beginning and end of the run.
The binding capacity of the Fab periplasmic extract was analyzed by SPR technology using a Biacore 3000. Briefly, diluted periplasmic extracts were injected on CM5 chip coated with 2500 RU of Gal10-His. The amplitude of the binding (Rmax), the dissociation (off-rate) of each clone, as well as the off-rate fold change compared to the controls (g7B07 and g7B07_N53A) are indicated. Clones g20H09 and g23H09 had similar or better off rate compared to the control g7B07 (Table 10). The randomized part of the CDR2 sequence is underlined (Table 10).

human Gal10-His [7] = target: T1, human Gal10-His; assay: SPR slope against calibrators on captured Gal10-His; sample 2 weeks at 37 C
Protocol: The binding properties of the seven selected clones following two weeks of temperature stress was analysed using an optimized capture method on a Biacore 3000 instrument. The binding properties of the stressed samples were determined, compared to the calibration point, and expressed as a percentage of Relative Activity (% RA).
Briefly, a capture method was set-up on a Biacore 3000 instrument. For this purpose, a CM5 chip was coated with a monoclonal anti-His antibody (4000 RU), then a fixed concentration of the human Gal10-His (25 μg/mL) was captured on the anti-His chip before receiving duplicate injections of the calibrators, QC samples and temperature stressed samples of each clone. The slope of each injected sample was then calculated using the BIA evaluation software. Concentrations of the QC samples and temperature stressed samples were back-calculated by interpolating the obtained slopes of these samples to the calibrator curve. Obtained values were within +/−20% of the nominal concentration of the tested samples and are expressed as average relative accuracy (avg % RA) (Table 13).

[8] = target: T2, cynomolgus Gal10-His (WGS isoform) (cynomolgus); assay: SPR Biacore 3000, hFab on cynomolgus Gal10-His (WGS) captured by anti-His CM5
T2 construct: also called cynomolgus antigen
Method in brief: (§1)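 Fab binding measured by SPR on Biacore 3000, with His-tagged human or cynomolgus (WGS isoform) Gal10 captured on an anti-His antibody-coated CM5 chip. Clones applied either at two concentrations (cynomolgus only) or as a serial dilution.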

human Gal10-His [9] = target: T1, human Gal10-His; assay: SPR Biacore 3000, purified hFab (2 conc.) on Gal10-His captured by anti-His CM5
[10] = target: T2, cynomolgus Gal10-His (WGS isoform); assay: SPR Biacore 3000, hFab on captured cynomolgus Gal10-His (WGS); column head prints (M), the text gives nM
Method in brief: as §1

B1: g23H09 (Fab) (Fab, V domains shown)
VH: EVQLLESGGGLVQPGGSLRLSCAASGFTFRSYDMSWVRQAPGKGLEWVSAIAQFQHWTYYADSVKGRFTISRDNSKNTLYLQMNSLRAEDTAVYYCATTHGIGTLGFGSWGQGTLVTVSS
VL: SYELTQPLSVSVALGQTARITCDGNNIGSKSAQWYQQKPGQAPVLVIYADEYRPEGIPERFSGSNSGNTATLTISRAQAGDEADYYCQVWDGSAAVFGGGTQLTVL
notes: same VH/VL
- Kd (human Gal10-His [1]): 5.34 nM
- koff (human Gal10-His [1]): 0.0031 s⁻¹
- Kd (human Gal10-His [2]): 5.3 nM
- koff (human Gal10-His [2]): 0.0031 s⁻¹
- fold better affinity than g7B07 (human Gal10-His [3]): 1.7 fold
- fold better off-rate than g7B07 (human Gal10-His [3]): 1.9 fold
- % relative activity by SPR (human Gal10-His [4]): 93%
- kd, fold compared to g7B07 (BLI or SPR) (human Gal10-His [5]): 2.5 fold
- Fold off-rate compared to g7B07 (human Gal10-His [6]): 0.4 fold
- koff (human Gal10-His [6]): 0.0027 s⁻¹
- % Relative Activity (RA) on Biacore (human Gal10-His [7]): 78%
- Amplitude R0 [8]: 589 RU
- koff [8]: 0.0095 s⁻¹
- kon [8]: 950000 M⁻¹ s⁻¹
- Kd (human Gal10-His [9]): 3.9 nM
- kd-fold drop vs g7B07 (human Gal10-His [9]): 1.8 fold
- koff (human Gal10-His [9]): 0.0025 s⁻¹
- kon (human Gal10-His [9]): 650000 M⁻¹ s⁻¹
- Kd [10]: 9.9 nM
